We go through two molecules from publication PMC2174553.

The experiment concerns the target Bub1p fusion to the Gal4 DNA binding domain (budding yeast) (UniProt P41695). The experiment is described as follows: two-hybrid.
Chain of UniProt P41695 (P41695 whole entry, the tested form may be a part): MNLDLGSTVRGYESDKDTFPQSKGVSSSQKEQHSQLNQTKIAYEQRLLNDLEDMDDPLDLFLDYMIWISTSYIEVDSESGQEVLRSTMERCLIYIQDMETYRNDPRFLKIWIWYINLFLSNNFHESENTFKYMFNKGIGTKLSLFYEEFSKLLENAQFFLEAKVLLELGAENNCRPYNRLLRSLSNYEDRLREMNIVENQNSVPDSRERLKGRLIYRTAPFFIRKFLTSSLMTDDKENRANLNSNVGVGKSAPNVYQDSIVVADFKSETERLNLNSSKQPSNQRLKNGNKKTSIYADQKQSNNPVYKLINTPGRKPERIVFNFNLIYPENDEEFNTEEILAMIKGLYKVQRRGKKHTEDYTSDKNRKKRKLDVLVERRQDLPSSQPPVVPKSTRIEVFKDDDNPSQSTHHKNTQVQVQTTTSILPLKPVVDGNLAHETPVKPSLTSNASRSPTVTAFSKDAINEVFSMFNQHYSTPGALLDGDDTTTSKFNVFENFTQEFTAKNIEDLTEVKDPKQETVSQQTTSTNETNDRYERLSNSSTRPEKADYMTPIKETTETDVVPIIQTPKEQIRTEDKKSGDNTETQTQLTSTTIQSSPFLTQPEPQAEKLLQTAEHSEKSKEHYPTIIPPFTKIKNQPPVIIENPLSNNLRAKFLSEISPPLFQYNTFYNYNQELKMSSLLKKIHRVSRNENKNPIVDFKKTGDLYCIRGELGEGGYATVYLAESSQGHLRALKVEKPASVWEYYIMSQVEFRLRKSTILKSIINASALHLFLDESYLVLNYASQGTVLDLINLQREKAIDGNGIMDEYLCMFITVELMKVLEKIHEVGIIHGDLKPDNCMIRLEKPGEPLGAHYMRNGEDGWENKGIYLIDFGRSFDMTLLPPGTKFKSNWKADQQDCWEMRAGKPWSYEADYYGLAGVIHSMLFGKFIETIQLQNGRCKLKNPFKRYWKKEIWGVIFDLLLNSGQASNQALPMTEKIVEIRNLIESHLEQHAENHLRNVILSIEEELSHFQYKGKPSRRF

B1: Bub3p fusion to the transcriptional activation domain (natural protein)
chain: MQIVQIEQAPKDYISDIKIIPSKSLLLITSWDGSLTVYKFDIQAKNVDLLQSLRYKHPLLCCNFIDNTDLQIYVGTVQGEILKVDLIGSPSFQALTNNEANLGICRICKYGDDKLIAASWDGLIEVIDPRNYGDGVIAVKNLNSNNTKVKNKIFTMDTNSSRLIVGMNNSQVQWFRLPLCEDDNGTIEESGLKYQIRDVALLPKEQEGYACSSIDGRVAVEFFDDQGDDYNSSKRFAFRCHRLNLKDTNLAYPVNSIEFSPRHKFLYTAGSDGIISCWNLQTRKKIKNFAKFNEDSVVKIACSDNILCLATSDDTFKTNAAIDQTIELNASSIYIIFDYEN
Turning to B1, the β-galactosidase activity (two-hybrid) was found to be 55 Miller units.

B2: Cdc20p fusion to the transcriptional activation domain (natural protein)
chain: MPESSRDKGNAAISGNRSVLSIASPTKLNILSSDWSRNQGKVSKNSLKRSSSLNIRNSKRPSLQASANSIYSRPKITIGAPPLIRRDSSFFKDEFDAKKDKATFSAYSSRSYPTIGSESVVSQTSLSQPTTSREVDEQFTVAADRYIPILQGASQNKVDPETLHEALPPPNASPISHLRAQTKIVFKQNVAEACGLDMNKRILQYMPEPPKCSSLRQKSYIMKKRTHYSYQQEQKIPDLIKLRKINTNPERILDAPGFQDDFYLNLLSWSKKNVLAIALDTALYLWNATTGDVSLLTDFENTTICSVTWSDDDCHISIGKEDGNTEIWDVETMSLIRTMRSGLGVRIGSLSWLDTLIATGSRSGEIQINDVRIKQHIVSTWAEHTGEVCGLSYKSDGLQLASGGNDNTVMIWDTRTSLPQFSKKTHTAAVKALSWCPYSPNILASGGGQTDKHIHFWNSITGARVGSINTGSQVSSLHWGQSHTSTNGGMMNKEIVATGGNPENAISVYNYETKFKVAEVVHAHEARICCSQLSPDGTTLATVGGDENLKFYKIFDPRCTGRSREDGLMDGMLGLIGKEGCRTNDKENRSKNSSEIHTRRPSSTSQYLIR
Molecule B2 came in with a β-galactosidase activity (two-hybrid) of 100 Miller units.
